The RNAGym collection of RNA variant scans (doi:10.1093/nar/gkz1192)

B1: CPEB3 Ribozyme (parent)
chain: UAACAGGGGGCCACAGCAGAAGCGUUCACGUCGCAGCCCCUGUCAGAUUCUGGUGAAUCUGCGAAUUCUGCUGUAUAUCUC

Variants of: B1
Test: self-cleavage, relative activity (ratio to wild type); higher = more cleavage; in vitro, sequencing
How it was run: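 Relative activity compares each variant's cleaved/total read fraction with that of the unmutated ribozyme. To get these fractions, barcoded CPEB3 ribozyme libraries from rounds of error-prone PCR were transcribed with T7 RNA polymerase for 5 hours at 37°C and then given 15 min of DNase I treatment before EDTA was added. The RNAs were reverse transcribed with template switching and sequenced on Illumina, and DNA sequencing linked barcodes to variants. A minimum of 5 reads applied, and three batches were averaged.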

Variant	self-cleavage
UAACAGGGGGCCACAGCAGAAGCGUGCACGUCGCAGCCCCUGUCAGAUUCGGGUGAAUCUGCGAAUUCUGCUGUAUAUCUC	0.33
UAACAGGGGGCCACAGCAGAAGCGUGCACGUCGCAGCCCCUGUCAGAUUCAGGUGAAUCUGCGAAUUCUGCUGUAUAUCUC	0.42
UAACAGGGGGCCACAGCAGAAGCGUGCACGUCGCAGCCCCUGUAAGAUUCUGGUGAAUCUGCGAAUUCUGCUGUAUAUCUC	0.25
UAACAGGGGGCCACAGCAGAAGCGUGCACGUCGCGGCCCCUGUCAGAUUCUGGUGAAUCUGCGAAUUCUGCUGUAUAUCUC	0.8
UAACAGGGGGCCACAGCAGAAGCGUGCACGUCGCUGCCCCUGUCAGAUUCUGGUGAAUCUGCGAAUUCUGCUGUAUAUCUC	0.13
UAACAGGGGGCCACAGCAGAAGCGUGCACGUCGCAGCCCCCGUCAGAUUCUGGUGAAUCUGCGAAUUCUGCUGUAUAUCUC	0.4
UAACAGGGGGCCACAGCAGAAGCGUGCACGUCGCAGCCCCAGUCAGAUUCUGGUGAAUCUGCGAAUUCUGCUGUAUAUCUC	0.28
UAACAGGGGGCCACAGCAGAAGCGUCCACGUCGCAGCCCCUGUCAGAUUCUGGUGAAUCUGCGAAUUCGGCUGUAUAUCUC	0.17
UAACAGGGGGCCACAGCAGAAGCGUGCACGUCGCAGCCCCUGUCAGAAUCUGGUGAAUCUGCGAAUUCUGCUGUAUAUCUC	0.37
UAACAGGGGGCCACAGCAGAAGCGUGCACGUCGCAGCCCCUGUCAGACUCUGGUGAAUCUGCGAAUUCUGCUGUAUAUCUC	0.22
UAACAGGGGGCCACAGCAGAAGCGUCCACGUCGCAGCCCCUGUCAGAUUCUGGUGAAUCUGCGAAUUCUGCUGUAUAUCCC	0.56
UAACAGGGGGCCACAGCAGAAGCGUCCACGUCGCAGCCCCUGUCAGAUUCUGGUGAAUCUGCGAAUUCUGCUGUAUAUCGC	0.54
UAACAGGGGGCCACAGCAGAAGCGUCCACGUCGCAGCCCCUGUCAGAUUCUGGUGAAUCUGCGAAUUCUGCUGUAUAUCAC	0.51
UAACAGGGGGCCACAGCAGAAGCGUGCACGUCGCAGCCCCUGUCAGAUUCUGGUGAAUCUGCGAAUUUUGCUGUAUAUCUC	0.35
UAACAGGGGGCCACAGCAGAAGCGUGCACGUCGCAGCCCCUGUCAGAUUCUGGUGAAUCUGAGAAUUCUGCUGUAUAUCUC	0.13
UAACAGGGGGCCACAGCAGAAGCGUGCACGUCGCAGCCCCUGUCAGAUUCUGGUGAAUCUGCGAAUUCUGCUGUAUAUUUC	0.4
UAACAGGGGGCCACAGCAGAAGCGUGCACGUCGCAGCCCCUGUCAGAUUCUGGUGAAUCUGCGAAUUCUGCUGUAUAUAUC	0.19
UAACAGGGGGCCACAGCAGAAGCGUGCACGUCGCAGCCCCUGUCAGAUUCUGGUGAAUCUGCGAAUUCUGCUGUAUGUCUC	0.34
UAACAGGGGGCCACAGCAGAAGCGUGCACGUCGCAGCCCCUGUCAGAUUCUGGUGAACCUGCGAAUUCUGCUGUAUAUCUC	0.36
UAACAGGGGGCCACAGCAGAAGCGUGCACGUCGCAGCCCCUGUCAGAUUCUGGUGAAUCUGCGAAUUCUGCAGUAUAUCUC	0.14
UAACAGGGGGCCACAGCAGAAGCGUGCACGUCGCAGCCCCUGUCAGAUUCUGGUGAAUCUGCGAAUUCUGCCGUAUAUCUC	0.31
UAACAGGGGGCCACAGCAGAAGCGUCCACGUCGCAGCCCCUGUCAGAUUCUGGUGAAUCUGCGAAUUCUGCUGUAUACCUC	0.42
UAACAGGGGGCCACAGCAGAAGCGUCCACGUCGCAGCCCCUGUCAGAUUCUGGUGAAUCUGCGAAUUCUGCUGUAUAACUC	0.51

Variant	self-cleavage
UAACAGGGGGCCACAGCAGAAGCGUGCACGUCGCAGCACCUGUCAGAUUCUGGUGAAUCUGCGAAUUCUGCUGUAUAUCUC	0.58
UAACAGGGGGCCACAGCAGAAGCGUGCACGUCGCAGCCCCUGUCAGAUUCUGGUGAAUCUGCGAAUUCUGCUAUAUAUCUC	0.89
UAACAGGGGGCCACAGCAGAAGCGUGCACGCCGCAGCCCCUGUCAGAUUCUGGUGAAUCUGCGAAUUCUGCUGUAUAUCUC	0.25
UAACAGGGGGCCACAGCAGAAGCGUGCACGACGCAGCCCCUGUCAGAUUCUGGUGAAUCUGCGAAUUCUGCUGUAUAUCUC	0.3
UAACAGGGGGCCACAGCAGAAGCGUGCACGUCGCAGCCCCUGUCAGAUUCUGGUGAAUCUGCGAAUUCUGCUGAAUAUCUC	0.41
UAACAGGGGGCCACAGCAGAAGCGUGCACGUCGCAGCCCCUGUCAGAUUCUGGUGAAUCUGCGAAUUCUGCUGCAUAUCUC	0.39
UAACAGGGGGCCACAGCAGAAGCGUGCACGUCGCAGCCCCUGUCAGAUUCUGGUGAAUCUGCGAAUUCUGCUGUAUAUCUC	0.31
UAACAGGGGGCCACAGCAGAAGCGUGCACGUCGCAGCCCCUGACAGAUUCUGGUGAAUCUGCGAAUUCUGCUGUAUAUCUC	0.41
UAACAGGGGGCCACAGCAGAAGCGUGCACGUCGCAGCCCCUGCCAGAUUCUGGUGAAUCUGCGAAUUCUGCUGUAUAUCUC	1.02
UAACAGGGGGCCACAGCAGAAGCGUGCACGUCGCAGCCCCUGUCAGAUUCUGGUGAAUCUGCGAAUUCAGCUGUAUAUCUC	0.21
UAACAGGGGGCCACAGCAGAAGCGUGCACGUCGCAGCCCCUGUCAGAUUCUGGUGAAUCUGCGAAUUCCGCUGUAUAUCUC	0.37
UAACAGGGGGCCACAGCAGAAGCGUGCACGUCGCAGCCCCUGUCAGAUUCUGGUGAAUCUGCGAAUUCUGCUGUACAUCUC	0.45
UAACAGGGGGCCACAGCAGAAGCGUGCACGUCGCAGCCCCUGUCAGAUUCUGGUGAAUCUGCGAAUUCUGCUGUAAAUCUC	0.32
UAACAGGGGGCCACAGCAGAAGCGUGCACGUCGCAGCCCCUGUCAGAUUCUGGUGAGUCUGCGAAUUCUGCUGUAUAUCUC	0.27
UAACAGGGGGCCACAGCAGAAGCGUCCACGUCGCAGCCCCUGUCAGAUUCUGGUGAAUCUGCGAAUUCUGCUGAAUAUCUC	0.73
UAACAGGGGGCCACAGCAGAAGCGUCCACGUCGCAGCCCCUGUCAGAUUCUGGUGAAUCUGCGAAUUCUGCUGGAUAUCUC	0.78
UAACAGGGGGCCACAGCAGAAGCGUCCACGUCGCAGCCCCUGUCAGAUUCUGGUGAAUCUGCGAAUUCUGCUGCAUAUCUC	0.79
UAACAGGGGGCCACAGCAGAAGCGUCCACGUCGCAGCCCCUGUCAGAUUCUGGUGAAUCUGCGAAUUCUGCUGUACAUCUC	0.52
UAACAGGGGGCCACAGCAGAAGCGUCCACGUCGCAGCCCCUGUCAGAUUCUGGUGAAUCUGCGAAUUCUGCUGUAGAUCUC	0.55
UAACAGGGGGCCACAGCAGAAGCGUCCACGUCGCAGCCCCUGUCAGAUUCUGGUGAAUCUGCGAAUUCUGCUGUAAAUCUC	0.53
UAACAGGGGGCCACAGCAGAAGCGUGCACGUCGCAGCCCCUGUCAGGUUCUGGUGAAUCUGCGAAUUCUGCUGUAUAUCUC	0.39
UAACAGGGGGCCACAGCAGAAGCGUCCACGUCGCAGCCCCUGUCAGAUUCUGGUGAAUCUGCGAAUUCUGCGGUAUAUCUC	0.41
UAACAGGGGGCCACAGCAGAAGCGUCCACGUCGCAGCCCCUGUCAGAUUCUGGUGAAUCUGCGAAUUCUGCAGUAUAUCUC	0.36

Variant	self-cleavage
UAACAGGGGGCCACAGCAGAAGCGUCCACGUCGCAGCCCCUGUCAGAUUCUGGUGAAUCUGCGAAUUCUGCCGUAUAUCUC	0.65
UAACAGGGGGCCACAGCAGAAGCGUGCACGUCGCAGCCCCUGUCAGAUUCUGGAGAAUCUGCGAAUUCUGCUGUAUAUCUC	0.19
UAACAGGGGGCCACAGCAGAAGCGUGCACGUCGCAGCCCCUGUCAGAUUCUGAUGAAUCUGCGAAUUCUGCUGUAUAUCUC	0.24
UAACAGGGGGCCACAGCAGAAGCGUGCACGUCGCAGCCCCUGUCCGAUUCUGGUGAAUCUGCGAAUUCUGCUGUAUAUCUC	0.09
UAACAGGGGGCCACAGCAGAAGCGUGCACGUCGCAGCCCCUGUCGGAUUCUGGUGAAUCUGCGAAUUCUGCUGUAUAUCUC	0.17
UAACAGGGGGCCACAGCAGAAGCGUGCACGUCGCAGCCCCUGUCUGAUUCUGGUGAAUCUGCGAAUUCUGCUGUAUAUCUC	0.17
UAACAGGGGGCCACAGCAGAAGCGUGCACGUCGCAGCCCCUGUCAGAUUCUGGUGAAUCUGCGAAGUCUGCUGUAUAUCUC	0.2
UAACAGGGGGCCACAGCAGAAGCGUGCACGUCGCAGCCCCUGUCAGAUUCUGGUGAAUCUGCGAACUCUGCUGUAUAUCUC	0.16
UAACAGGGGGCCACAGCAGAAGCGUGCACGUCGCAGCCCCUGUCAGAUUCUGGUGAAUCUGCGGAUUCUGCUGUAUAUCUC	0.25
UAACAGGGGGCCACAGCAGAAGCGUGCACGUCGCAGCCCCUGUCAGAUUCUGGUGAAUCCGCGAAUUCUGCUGUAUAUCUC	0.11
UAACAGGGGGCCACAGCAGAAGCGUGCACGUCGCAGCCCCUGUCAGAUUCUGGUGAAUCUGCGAAUUCUGCUGUAUAACUC	0.51
UAACAGGGGGCCACAGCAGAAGCGUGCACGUCGCAGCCCCUGUCAGAUUCUGGUGAAUCUGCGAAUUCUGCUGUAUACCUC	0.3
UAACAGGGGGCCACAGCAGAAGCGUGCACGUCGCAGCCCCUGUCAGAUUCUGGUGAAUCUGCGAGUUCUGCUGUAUAUCUC	0.35
UAACAGGGGGCCACAGCAGAAGCGUGCACGUCGCAGCCCCUGUCAGAUUCUGGUGAAUCUGCGAUUUCUGCUGUAUAUCUC	0.15
UAACAGGGGGCCACAGCAGAAGCGUGCACGUCGCAGCCCCUGUCAGAUUCUGGUGAAUAUGCGAAUUCUGCUGUAUAUCUC	0.16
UAACAGGGGGCCACAGCAGAAGCGUGUACGUCGCAGCCCCUGUCAGAUUCUGGUGAAUCUGCGAAUUCUGCUGUAUAUCUC	0.63
UAACAGGGGGCCACAGCAGAAGCGUGCACGUCGCAGCCCCUGUCAGAUUCUGGUGUAUCUGCGAAUUCUGCUGUAUAUCUC	0.1
UAACAGGGGGCCACAGCAGAAGCGUGCACGUCGCAGCCCCUGUCAGAUUCUGGUGGAUCUGCGAAUUCUGCUGUAUAUCUC	0.24
UAACAGGGGGCCACAGCAGAAGCGUGCACGUCGGAGCCCCUGUCAGAUUCUGGUGAAUCUGCGAAUUCUGCUGUAUAUCUC	0.07
UAACAGGGGGCCACAGCAGAAGCGUGCACGUCGCAGCCCCUGUCAGAUUCUGGUGAAUCUGCGAAUUCUGCUGUGUAUCUC	0.16
UAACAGGGGGCCACAGCAGAAGCGUGCACGUCGCAGCCCCUGUCAGAUGCUGGUGAAUCUGCGAAUUCUGCUGUAUAUCUC	0.05
UAACAGGGGGCCACAGCAGAAGCGUGCACGUCGCAGCCCCUGUCAGAUACUGGUGAAUCUGCGAAUUCUGCUGUAUAUCUC	0.28
